Data on one substance can be found in patent EP0621339B1 (TAKARA SHUZO CO. LTD., dated 2001).

Bounds are passed on as bounds.

This test has as its target HA molecule (haemagglutinin) of A/Okuda/57 (H2N2) (influenza A virus, H2N2 subtype, strain A/Okuda/57). Put plainly: cell-based or functional assay.

As to monoclonal antibody C179, the HI (hemagglutination inhibition titer) (fold dilution of the ascites fluid) is less than 32.
